Test results: the supplement of paper PMC9170038

Test system: MS2 coat protein
Experiment: apparent KD of MS2 coat protein; designed switch direction (-1 OFF switch, 1 ON switch): -1; higher = weaker reporter binding
Procedure, shortened: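 Transcription of designed RNA switches on Illumina chips was done by stalled E. coli RNA polymerase. SNAP-549-labelled MS2 coat protein was then titrated in doubling steps from 0.7 or 1.5 nM to 3 µM, with steps of 0.8–1.5 h at the lowest and 10–20 min at the highest concentration. The per-design median over clusters of curve-fitted normalised fluorescence is reported as apparent KD.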

[1] = input ligand: microRNA oligo, concentration not stated

| Sequence | apparent KD of MS2 coat protein (input ligand: FMN 200 uM) [nM] | apparent KD of MS2 coat protein [1] [nM] | apparent KD of MS2 coat protein (input ligand: none) [nM] | apparent KD of MS2 coat protein (Eterna round: R95, input ligand: microRNA oligo, concentration not stated) [nM] |
| --- | --- | --- | --- | --- |
| GGAGGACGAGCAGGAUAUUUUUACAUGAGGAUCACCCAUGUGUAAUCAGGGUAAUCCUCCACCGAAAAGAAGGGUUCGGAAGAA [Mat - Exclusion NG 2 - Mod of JL - D84] (Eterna round: R96, puzzle: Exclusion NG 2) | 18.1 | 9.17 | 70.6 |  |
| GGAGGAGAGGUAAGGAUAUGGUGGUGGAAACACCACCAGAAGGUACAUGAGGAUCACCCAUGUAAGGAAGGAGG [AK-MS2ROC-r4-Bmoexclusion4-17.1] (Eterna round: R97, puzzle: Brourd's mod of Exclusion 4) | 26.7 |  | 26.6 |  |
| GGAUAAAACUGAGGAUAUGCGUAUCGCUAGCGAGCAGAAGGCAGACAUGAGGAUCACCCAUGUGAGUUCUCGAUAAGAAACACG [Prohibition 59 - Jieux - Exclusion NG 1] (Eterna round: R96, puzzle: Exclusion NG 1) | 145 | 54.8 | 57.7 |  |
| GGAUAUAACGUAGGAUAUCUGAGAAACAGACGAAGAGAAGGACGACAUGAGGAUCACCCAUGUGAUCUAUCAAUAUUAUACAUG [Prohibition 99 - Jieux - Exclusion NG 1] (Eterna round: R96, puzzle: Exclusion NG 1) | 412 | 330 | 351 |  |
| GGAUCACAUGUGAGGAUAUGCUGGUCCUUGGAUCAGCAGAAGGCACAUGAGGAUCACCCAUGUGAUCAAGAUCC [Eli bmx4 4.78] (Eterna round: R97, puzzle: Brourd's mod of Exclusion 4) | 22.2 |  | 37.1 |  |
| GGAUCAUGAGGAUAUCGAGGUUAGUACAUGAGGAUCACCCAUGUUAUCCAGGUCUCGUUUCGAGAAGGCAUGAUCC [LRO-Ex5-10] (puzzle: Exclusion 5) |  |  |  | 21.2 |
| GGAUCGAGUGUGAGGAUAUGCUGGUCCUUGGAUCAGCAGAAGGCACAUGAGGAUCACCCAUGUGAUCAAGAUCC [Eli bmx4 4.76] (Eterna round: R97, puzzle: Brourd's mod of Exclusion 4) | 50.9 |  | 712 |  |
| GGAUGAGGAGUGAGGAUAUCGUGUUCGAAAGAACGUGAGAAGGCACAUGAGGAUCACCCAUGUGAUCCUCAUCG [Omei Ex4B A22] (Eterna round: R97, puzzle: Brourd's mod of Exclusion 4) | 365 |  | 59.6 |  |
| GGAUUUUCUGAGGAUAUUGCAUCACCCGAUUUAUAAGAAGGCAGAACAUGAGGAUCACCCAUGUGGGUCUCUAG [Bingo-Bango-26] (Eterna round: R97, puzzle: Exclusion 6) | 30.6 |  | 24.5 |  |
| GGCACACAUGAGGAUCACCCAUGUGAGGAUAUGGUGCGAUCGUCGAUAGACGAUAGCACUAGAAGGCACAUGCC [Mat - Exclusion 1 - Eli Mod - D6] (Eterna round: R97, puzzle: Exclusion 1) | 25.5 |  | 17.8 |  |
| GGCACACAUGAGGAUCACCCAUGUGAGGAUAUGUGGCGAUCGUCGAAAGACGAUAGCCACAGAAGGCACAGGCC [Eli x1 4.24] (Eterna round: R97, puzzle: Exclusion 1) | 21.4 |  | 17.8 |  |
| GGCAUCAUCUGGUCCUGAUACAUGAGGAUCACCCAUGUUCUACUGUAGGUCGUAAGCAGCUUACCCUCUUAGGCACA [JR_Sensorv2_tov_Sub1249] (Eterna round: R96, puzzle: Sensor v2, turn-off variant) | 380 | 227 | 308 |  |
| GGCAUGCAAGGAUAUACUUGCAGUGAUGUUCGAUAAAUUCUACUUGAGGAUCACCCAAGUAGAAGGUGCAUGCC [Exclusion 2 (Mod4 JL EX2 4.74 Vienna UCT mod of Mamaed)] (Eterna round: R97, puzzle: Exclusion 2) | 15.2 |  | 27.3 |  |
